Ends that are not written are not given here. pIg22 = chimeric Ig-Fc consisting of the CH2 domain of PIg18 (IgG2 derivative) and the CH3 domain of IgG1
T1: FLAG-tagged cynomolgous APRIL (cynomolgus monkey, UniProt A0ACM8R0G4 110-250 (rhesus entry))
T1 construct: FLAG-tagged, expressed with TPA signal peptide; also called cyAPRIL
T1 sequence: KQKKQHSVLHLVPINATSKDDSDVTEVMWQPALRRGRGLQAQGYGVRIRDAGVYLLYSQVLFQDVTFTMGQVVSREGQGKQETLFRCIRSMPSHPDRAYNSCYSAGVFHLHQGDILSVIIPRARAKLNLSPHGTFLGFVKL

T2: FLAG-tagged recombinant human APRIL (human, UniProt O75888 105-250)
T2 construct: KINEXA ligand; also called huAPRIL
T2 sequence: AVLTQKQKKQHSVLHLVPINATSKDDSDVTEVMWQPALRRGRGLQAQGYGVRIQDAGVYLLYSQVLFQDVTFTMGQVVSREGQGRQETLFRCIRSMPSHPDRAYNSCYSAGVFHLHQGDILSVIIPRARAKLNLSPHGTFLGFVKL


Assays:
[1] = target: T1, FLAG-tagged cynomolgous APRIL; experiment: BIACORE SPR; NB = No binding
Protocol: (§1) For human BAFF, cynomolgus monkey APRIL, and mouse APRIL measurements, mouse monoclonal antibody (IgG1) anti-FLAG M2 (Sigma Aldrich, Cat. No. F1804) was immobilized on CM3 sensor chips (GE Healthcare, Cat. No. BR-1005-41) according to the manufacturer's protocol. Antibody was diluted to 30 μg/ml in immobilization buffer (10 mM pH 5±0.20; GE Healthcare; GE Healthcare, Catalog No. BR-1003-51). […] Unreacted sites were quenched with 35 μl of 1M ethanolamine-HCl, pH 8.5 (GE Healthcare, GE Healthcare, Cat. No. BR-1000-50). This procedure typically yielded 3,000-4,000 response units (RU) of coupled antibody.
(§2) The fusion polypeptides were diluted in HBS-EP buffer and flowed over ligand-coated sensor chips. The variant BCMA-Ig and surrogate control fusion proteins were injected at three concentrations (1.5 nM, 15 nM, and 150 nM at 30 μl/min for 2 minutes per association phase) in a single binding cycle, followed by a 20 minute incubation with HBS-EP buffer containing no protein at the same flow rate. A similar protocol was followed for Z-TACI-Ig, except that the injections were at 4.5 nM, 45 nM, and 450 nM.
Using available information from the structures and published literature, several residues in BAv8-10 were targeted for substitution with conserved as well as non-conserved residues and their effect on BAFF and APRIL binding was assessed by BIACORE.

FLAG-tagged human BAFF [2] = target: T3, FLAG-tagged human BAFF (human, UniProt Q9Y275 134-285, limits assumed); experiment: KinExA
T3 construct: used in BIACORE (Ex. 9) and KINEXA (Ex. 11); also called huBAFF
Protocol: (§3) Equilibrium measurements were performed using FLAG-tagged, recombinant huBAFF and huAPRIL ligands. Fixed ligand concentrations of human BAFF or human APRIL were incubated with serial dilutions of the variant BCMA ECD-Ig fusion polypeptides, and free ligand was detected in a KINEXA 3200 Instrument. variant BCMA ECD-Ig fusion polypeptides were first diluted in equilibration buffer (1×PBS, pH 7.4, 1 mg/ml BSA) to a range of concentrations from 10 nM to 100 fM. The linear portion of the dilution series was typically 2-fold. Ligands were diluted in equilibration buffer to fixed concentrations ranging from 5 to 20 pM and then incubated with the variant BCMA-Ig dilutions in total reaction volumes ranging from 4.5 to 15 ml. Samples were incubated at room temperature for 48-72 hours to reach equilibrium. For each data point, a fresh column of 850 μl of bead slurry coated with Variant BAv-238475-Ig was introduced into the KINEXA flow cell. Equilibrated samples ranging from 1 to 5 ml reaction volume were injected at a flow rate of 0.25 ml/min. […] The DyLight 649 fluorescent signal was detected using the red filter set (620/30 nanometer excitation filter, 670/40 nanometer emission filter, 645 nanometer dichroic filter) on the KinExA instrument and converted to a voltage signal that was directly proportional to the concentration of free ligand in the equilibrated sample.
(§4) Table 5 provides the selectivities of exemplary variant BCMA polypeptides with respect to BAFF and APRIL.

[3] = target: T2, FLAG-tagged recombinant human APRIL; experiment: KinExA
Protocol: as §3, §4

FLAG-tagged human BAFF [4] = target: T3, FLAG-tagged human BAFF; experiment: KinExA; remark: listed apart in the source
Protocol: as §3
(§5) The standard kinetic exclusion assays and data analyses described above were performed on protein preparations of various variant BCMA ECD-Ig fusion polypeptides, as well as Z-TACI-Ig and [S40G]huBCMA ECD-Ig fusion polypeptides. FIG. 8A, FIG. 8B, and Table 4 summarize the binding data for representative variant BCMA ECD-Ig polypeptides and controls in molar concentrations of huBAFF or huAPRIL determined by KINEXA binding assays.

[5] = target: T2, FLAG-tagged recombinant human APRIL; experiment: KinExA; remark: listed apart in the source
Protocol: as §3, §5

FLAG-tagged human BAFF [6] = target: T3, FLAG-tagged human BAFF; experiment: BIACORE SPR
Protocol: as §1, §2
(§6) The various fusion proteins described above were expressed and purified as described previously (Examples 2 and 3 for the CET1019AS based plasmids and Examples 7 and 8 for the pcDNA based plasmids). […] The BAv9-1-Ig Fc proteins typically exist in solution as a dimeric fusion protein. The purified fusion proteins were assayed for binding activity using BIACORE (Example 9) and KINEXA (Example 11) assays.

[7] = target: T1, FLAG-tagged cynomolgous APRIL; experiment: BIACORE SPR
Protocol: as §1, §2, §6

FLAG-tagged human BAFF [8] = target: T3, FLAG-tagged human BAFF; experiment: BIACORE SPR; remark: listed apart in the source
Protocol: as §1, §2
(§7) Sequence optimization involved generating revertants from the variant BCMA ECD-Ig molecules using standard site-directed mutagenesis methods such as by SOEing as described herein above. Single as well as multiple revertants from twelve different variant-BCMA-pIg18 were generated, cloned in the pcDNA3.1 vector (Life Technologies, as described in Example 6), expressed and purified as described in Examples 6-8. The resulting proteins were assayed for their binding characteristics using Surface Plasmon Resonance as described in Example 9.

[9] = target: T1, FLAG-tagged cynomolgous APRIL; experiment: BIACORE SPR; remark: listed apart in the source
Protocol: as §1, §2, §7

Binder	binding result [1]	Selectivity for huBAFF (KD APRIL/KD BAFF) (FLAG-tagged human BAFF [2]) [ratio]	Selectivity for huAPRIL (KD BAFF/KD APRIL) [3] [ratio]	fold improvement over control (FLAG-tagged human BAFF [4]) [fold]	fold improvement over control [5] [fold]	other results
AGQCSQNEYFDHLLRACIPCQVNCSSNTPPLTCQRYCNAGVTNSVKGTNA (Fc fusion, not shown: PIg18: human IgG2 Fc, Ser at Fc positions 4, 5, 11 (native Cys)) [BAv45-Ig]	no binding (tested: 150 nM)	–	–	–	–	–
AGQCSQNEYFDHLVRACIPCQARCSSNTPPLTCQRYCNAGVTNSVGGGGS-pIg22 (Fc fusion, human, not fully specified; cysteine pairing not given here, domain: Fc; not shown: PIg22: chimeric Fc, CH2 domain of PIg18 (human IgG2 derivative) and CH3 domain of human IgG1) [BAv85-5L-pIg22]	–	–	–	–	–	Kd (FLAG-tagged human BAFF [6]): 6.76 pM; Kd [7]: 784 pM
AGQCSQNEYFDPLVRACIPCQVRCSSNTPPLTCQRYCNAGVTNSVGGGGS-pIg22 (Fc fusion, human, not fully specified; cysteine pairing not given here, domain: Fc; not shown: PIg22: chimeric Fc, CH2 domain of PIg18 (human IgG2 derivative) and CH3 domain of human IgG1) [BAv81-5L-pIg22]	–	–	–	–	–	Kd (FLAG-tagged human BAFF [6]): 6.75 pM; Kd [7]: 2420 pM
AGQCSQNEYFDHLLRACIPCQYTCSSNTPPLTCQRYCNAGVTNSVKGTNA (Fc fusion, not shown: PIg18: human IgG2 Fc, Ser at Fc positions 4, 5, 11 (native Cys)) [BAv78-Ig]	no binding (tested: 150 nM)	–	–	–	–	–
AGQCSQNEYFDHLIRACTPCQVRCSSNTPPLTCQRYCNAGVTNSVKGTNA (Fc fusion, not shown: PIg18: human IgG2 Fc, Ser at Fc positions 4, 5, 11 (native Cys)) [BAv74-Ig]	–	0.84	1.19	10.4	0.00871	Kd (FLAG-tagged human BAFF [4]): 21.8 pM; Kd [5]: 18.3 pM
AGQCSQNEYFDPLVRACIPCQIRCSSNTPPLTCQRYCNAGVTNSVGGGGS-pIg22 (Fc fusion, human, not fully specified; cysteine pairing not given here, domain: Fc; not shown: PIg22: chimeric Fc, CH2 domain of PIg18 (human IgG2 derivative) and CH3 domain of human IgG1) [BAv83-5L-pIg22]	–	–	–	–	–	Kd (FLAG-tagged human BAFF [6]): 8.61 pM; Kd [7]: 861 pM
AGQCSQNEYFDPLIRACIPCQVRCSSNTPPLTCQRYCNAGVTNSVGGGGS (Fc fusion, human, domain: Fc; not shown: PIg22: chimeric Fc, CH2 domain of PIg18 (human IgG2 derivative) and CH3 domain of human IgG1) [BAv49-5L-pIg22]	–	–	–	–	–	Kd (FLAG-tagged human BAFF [6]): 14.1 pM; Kd [7]: 1760 pM
AGQCSQNEYFDSLVRHCIPCQVRCSSNTPPLTCQRYCNAGVTNSVKGTNA (Fc fusion, also called BAv60 (2)-Ig; not shown: PIg18: human IgG2 Fc, Ser at Fc positions 4, 5, 11 (native Cys)) [BAv60-Ig]	–	957	0.001	4200	0.0031	Kd (FLAG-tagged human BAFF [4]): 0.0537 pM; Kd [5]: 51.4 pM
AGQCSQNEYFDHLYRACIPCQVRCSSNTPPLTCQRYCNAGVTNSVKGTNA (Fc fusion, not shown: PIg18: human IgG2 Fc, Ser at Fc positions 4, 5, 11 (native Cys)) [BAv64-Ig]	no binding (tested: 150 nM)	–	–	–	–	–
Variant 9-3-Ig (Fc fusion, human, domain: Fc; also called BAv9-3) AGQCSQNEYFDHLVRACIPCQVRCSSNTPPLTCQRYCNAGVTNSVKGTNAERKSSVECPPSPAPPVAGPSVFLFPPKPKDTLMISRTPEVTCVVVDVSHEDPEVQFNWYVDGVEVHNAKTKPREEQFNSTFRVVSVLTVVHQDWLNGKEYKCKVSNKGLPAPIEKTISKTKGQPREPQVYTLPPSREEMTKNQVSLTCLVKGFYPSDISVEWESNGQPENNYKTTPPMLDSDGSFFLYSKLTVDKSRWQQGNVFSCSVMHEALHNHYTQKSLSLSPGK	–	221	0.005	2660	0.008	–
Variant 50234224-Ig (Fc fusion, human, domain: Fc; also called Parent 6) AGQCSQNDYYDHLLRACIPCQLRCSSNNPPLTCQRYCNAGVTNSVKGTNAERKSSVECPPSPAPPVAGPSVFLFPPKPKDTLMISRTPEVTCVVVDVSHEDPEVQFNWYVDGVEVHNAKTKPREEQFNSTFRVVSVLTVVHQDWLNGKEYKCKVSNKGLPAPIEKTISKTKGQPREPQVYTLPPSREEMTKNQVSLTCLVKGFYPSDISVEWESNGQPENNYKTTPPMLDSDGSFFLYSKLTVDKSRWQQGNVFSCSVMHEALHNHYTQKSLSLSPGK	–	–	–	–	–	fold improvement over control (FLAG-tagged human BAFF [8]): 4.2 fold; fold improvement over control [9]: 0.4 fold

Continued, in another order:

binding result [1]	Selectivity for huBAFF (KD APRIL/KD BAFF) (FLAG-tagged human BAFF [2]) [ratio]	Selectivity for huAPRIL (KD BAFF/KD APRIL) [3] [ratio]	fold improvement over control (FLAG-tagged human BAFF [4]) [fold]	fold improvement over control [5] [fold]	Binder	other results
–	369	0.003	1180	0.00225	AGQCSQNEYFDHLIRACIPCQARCSSNTPPLTCQRYCNAGVTNSVKGTNA (Fc fusion, also called BAv51 (2)-Ig; not shown: PIg18: human IgG2 Fc, Ser at Fc positions 4, 5, 11 (native Cys)) [BAv51-Ig]	Kd (FLAG-tagged human BAFF [4]): 0.192 pM; Kd [5]: 70.8 pM
–	129	0.008	940	0.00514	AGQCSQNEYFDSLVRHCIPCQIRCSSNTPPLTCQRYCNAGVTNSVKGTNA (Fc fusion, not shown: PIg18: human IgG2 Fc, Ser at Fc positions 4, 5, 11 (native Cys)) [BAv58-Ig]	Kd (FLAG-tagged human BAFF [4]): 0.24 pM; Kd [5]: 31 pM
–	73.6	0.014	488	0.00469	AGQCSQNEYFDSLIRHCIPCQVRCSSNTPPLTCQRYCNAGVTNSVKGTNA (Fc fusion, not shown: PIg18: human IgG2 Fc, Ser at Fc positions 4, 5, 11 (native Cys)) [BAv53-Ig]	Kd (FLAG-tagged human BAFF [4]): 0.462 pM; Kd [5]: 34 pM
no binding (tested: 150 nM)	–	–	–	–	AGQCSQNEYFDHLGRACIPCQVRCSSNTPPLTCQRYCNAGVTNSVKGTNA (Fc fusion, not shown: PIg18: human IgG2 Fc, Ser at Fc positions 4, 5, 11 (native Cys)) [BAv55-Ig]	–
no binding (tested: 150 nM)	–	–	–	–	AGQCSQNEYFDPLVRACIPCQARCSSNTPPLTCQRYCNAGVTNSVKGTNA (Fc fusion, not shown: PIg18: human IgG2 Fc, Ser at Fc positions 4, 5, 11 (native Cys)) [BAv82-Ig]	–
no binding (tested: 150 nM)	–	–	–	–	AGQCSQNEYFDHLARACIPCQVRCSSNTPPLTCQRYCNAGVTNSVKGTNA (Fc fusion, not shown: PIg18: human IgG2 Fc, Ser at Fc positions 4, 5, 11 (native Cys)) [BAv63-Ig]	–
no binding (tested: 150 nM)	–	–	–	–	AGQCSQNEYFDPLIRACIPCQARCSSNTPPLTCQRYCNAGVTNSVKGTNA (Fc fusion, not shown: PIg18: human IgG2 Fc, Ser at Fc positions 4, 5, 11 (native Cys)) [BAv79-Ig]	–

Reference: patent publication US20250042970A1 (AURINIA PHARMACEUTICALS, published 2025)
